The target in assay [1] is actin (African green monkey (endogenous in CV1)). Briefly: pull-down.
The target in assay [2] is gelsolin (African green monkey (endogenous in CV1)). Briefly: co-IP.

gelsolin (natural protein): in assay [1], the actin:gelsolin staining intensity ratio, PIP5KI-overexpressing cells was 1.25 and the actin:gelsolin staining intensity ratio, β-gal cells is 1.91.
Substance profilin (natural protein) yielded a decrease in profilin bound to actin, PIP5KI-overexpressing against β-gal cells in assay [1] of 51%.
For the substance actin (natural protein), in assay [2], the actin:gelsolin 35S intensity ratio, PIP5KI-overexpressing cells was 25.7% and the actin:gelsolin 35S intensity ratio, β-gal cells is 39.4%.

For the origin of these results see PMC2198810.
